US20220193270A1, “METHOD FOR ENHANCING TUMOR GROWTH” (MINERVA BIOTECHNOLOGIES CORPORATION, priority 2013, published 2022)

Experiments:
T47D cancer stem cells = assay: Tumor initiation and metastasis from low numbers of NME7-AB-induced T47D cancer stem cells, with or without daily NME7-AB injections; type: in vivo, nu/nu female mice
Experimental: T47D breast cancer cells were cultured as described in Example 3a above. After 7-10 days culture in minimal media to which was added rhNME7-AB to a final concentration of 4 nM, floating cells were collected. […] The floating cells were counted and re-suspended in PBS. The NME7-induced cancer stem cells were mixed 1:2 with reduced growth factor Matrigel; that is 2 parts Matrigel to 1 part cells. A range of ratios of cancer cells to NME7 or the injection schedule of NME7 is expected to vary from one mouse strain to another and from one tumor type to another.
The cancer stem cells were implanted in the flank of female nu/nu mice which had previously been implanted with a 90-day release estrogen pellet in the shoulder area. Four (4) groups of six (6) mice each were implanted with either 50, 100, 1,000 or 10,000 T47D cancer stem cells. In each case the total volume injected into each mouse was 100 uL. Half of the mice in each group were injected daily with 200 uL of recombinant human NME7-AB in the flank near but not at the cancer stem cell implantation site.
Animals were monitored for food intake and body weight, which were normal and stable. Two (2) independent and blinded tumor measurements were taken once a week and recorded.

human fibroblasts = assay: RT-PCR of stem/cancer markers and chromatin rearrangement factors in fibroblasts cultured with NME proteins; type: cell-based; settings: after 15-20 days in culture
Experimental: Agents that are able to maintain stem cells in the naive state are also able to transform somatic cells to a cancer or stem-like state. Human NME1 dimer or human NME7 are able to make somatic cells revert to a less mature state, expressing stem and cancer cell markers. Bacterial NME from HSP 593 was tested alongside the human homologs to determine if it could mimic their function by being able to revert somatic cells to a cancer-like state. Human fibroblasts were cultured in a serum-free minimal base media with either HSP 593, human NME1 dimers or human NME7-AB as the only growth factor or cytokine. […] Recalling that stem cells and metastatic cancer cells can grow anchorage-independently, we repeated the experiments but this time a rho kinase inhibitor was added to one set of cells to make the cells adhere to the surface. […] Photos of the experiment show the dramatic change in morphology as the fibroblasts revert when cultured in human or bacterial NME, FIGS. 52-59. The relative order of efficiency of reverting somatic cells to a less mature state was NME7>NME1 dimers >NME1 bacterial. […] However, Bacterial NME from HSP 593 apparently up-regulates expression of human NME7 and NME1.
Example 3d: In this example, fibroblast cells were cultured in the presence of recombinant human NME1/NM23 dimers, bacterial HSP593 NME1 dimers or NME7-AB. The fibroblasts were cultured in their normal media as a control, which is for 500 mL, 445 mL DMEM high glucose base media, 5 mL GlutaMAX and 50 mL of fetal bovine serum (FBS). After 15-20 days in culture with either NME1/NM23 dimers, bacterial HSP593 NME1 dimers or NME7-AB, the morphology of the cells completely changed so that they no longer were recognizable as fibroblasts. […] Here, ‘minus ROCi’ refers to cells that became non-adherent and floated off the surface.

[1] = tested on: Human HES-3 embryonic stem cells; assay: Human embryonic stem cell culture with NME protein as only growth factor; type: cell-based; settings: serum-free minimal base media, agent as the only growth factor or cytokine
Description: Factors that are able to maintain stem cells in the naive state are also able to transform cells to a cancer-like or stem-like state and are also able to transform cancer cells to a cancer stem cell state or a more metastatic state. Herein, we have shown several examples of bacterial NME1 being able to function like human NME1 dimers, which are also able to function like NME7 or NME7-AB. However, the primary example that these factors function in a very similar way is their ability to promote the growth of stem cells, inhibit differentiation and maintain them in the naive state. […] Human HES-3 embryonic stem cells were cultured in a serum-free minimal base media with either HSP 593, human NME1 or NME7-dimers or human NME7-AB as the only growth factor or cytokine. […] Several examples have been presented here that indicate that contacting cells with an agent or agents that are able to revert stem cells from the primed state to the less mature naive state are also able to revert a wide variety of cell types to a less mature state: somatic cells to stem or progenitor cells or cancer cells to more metastatic state also called cancer stem cell state. Therefore, the invention is not meant to be limited to a specific cell type or a specific cancer cell type.

[2] = target: T1, PSMGFR peptide of the MUC1* extracellular domain (Homo sapiens, UniProt P15941); assay: ELISA binding to PSMGFR peptide; settings: FIG. 47, FIG. 48b
T1 sequence (P15941 1110-1154 limits assumed): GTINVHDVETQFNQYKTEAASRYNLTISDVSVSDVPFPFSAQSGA
Description: We made recombinant human NM23, also called NME1, dimers that bear the […] mutation that stabilizes dimers. We previously reported that human NME1 dimers bind to the PSMGFR portion of the extracellular domain of the MUC1* receptor (Smagghe et al. 2013). We also made recombinant human NME7-AB that is secreted as a monomer. […] We made recombinant bacterial NME proteins found in Halomonas Sp. 593 (‘HSP 593’) and in Porphyromonas gingivalis W83 that had high sequence homology to human NME1 and had been reported to exist in dimer state (FIG. 48 and FIG. 49). HSP 593 expressed well in E. coli and a significant portion was present as a dimer, which population was then purified by FPLC and confirmed the dimer population (FIG. 48a).

B1: NME7-AB: recombinant human NME7 variant (A and B domains, SEQ ID NO:39) secreted as a monomer; 'NME7' in the experiments means this protein (protein)
chain: MEKTLALIKPDAISKAGEIIEIINKAGFTITKLKMMMLSRKEALDFHVDHQSRPFFNELIQFITTGPIIAMEILRDDAICEWKRLLGPANSGVARTDASESIRALFGTDGIRNAAHGPDSFASAAREMELFFPSSGGCGPANTAKFTNCTCCIVKPHAVSEGLLGKILMAIRDAGFEISAMQMFNMDRVNVEEFYEVYKGVVTEYHDMVTEMYSGPCVAMEIQQNNATKTFREFCGPADPEIARHLRPGTLRAIFGKTKIQNAVHCTDLPEDGLLEVQYFFKILDN
modifications: Human NME7-AB
notes: 'NME7' in the experiments means this protein
T47D cancer stem cells; all 24 mice implanted with 50, 100, 1,000 or 10,000 NME7-induced cancer stem cells
  mice that developed tumors: 67%
T47D cancer stem cells; cancer stem cells generated by culture in NME7-AB
  number of implanted cells that initiate tumors in mice: ≤ 50 cells
T47D cancer stem cells; group injected with NME7 daily
  time after which cancers metastasized: about 50 days
T47D cancer stem cells; implanted with NME7-induced cancer stem cells and receiving daily injections of NME7
  mice that formed tumors: 83%
T47D cancer stem cells; implanted with NME7-induced cancer stem cells, no circulating NME7 (no daily injections)
  mice that formed tumors: 50%
T47D cancer stem cells; of the daily NME7-injected mice that formed tumors, by approximately Day 50
  tumor-bearing mice that developed cancer metastasis (multiple tumors): 80%
Human fibroblasts; FIG. 15
  expression of stem cell marker genes OCT4 and NANOG: greatly increased expression
Human fibroblasts; FIG. 16
  expression of BRD4, JMJD6, MBD3 and CHD4: decreased expression
[1]
  support of human stem cell growth: fully supported human stem cell growth
[2]
  binding to PSMGFR portion of the MUC1* extracellular domain: bind to and dimerize
